This note sets out measurements from publication PMC139967.

This test concerns the target T701-Myo1c (neck-tail fragment of bullfrog myosin-1c, amino acids 701-1028) (bullfrog) (UniProt Q92002). The test is described as follows: SDS-PAGE gel scanning.

T701-Myo1c (neck-tail fragment of bullfrog myosin-1c, amino acids 701-1028) (bullfrog), sequence (Q92002 701-1028): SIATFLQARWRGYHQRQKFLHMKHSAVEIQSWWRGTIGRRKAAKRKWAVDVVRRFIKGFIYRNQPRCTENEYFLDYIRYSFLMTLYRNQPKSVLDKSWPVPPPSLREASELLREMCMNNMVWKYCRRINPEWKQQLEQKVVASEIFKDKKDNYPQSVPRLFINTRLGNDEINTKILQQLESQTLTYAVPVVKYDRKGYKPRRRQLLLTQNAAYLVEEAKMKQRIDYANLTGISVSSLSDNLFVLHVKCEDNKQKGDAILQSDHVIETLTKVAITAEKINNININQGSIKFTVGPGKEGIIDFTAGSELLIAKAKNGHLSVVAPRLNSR

On to “Xenopus calmodulin (from UniProt P0DP33 1-149) (natural protein)”, for which the stoichiometry N (calmodulins per T701-Myo1c) is 2.6.
